US20120172293A1 (Takeda / Millennium, published 2012)
Non-standard residues stand in square brackets, D forms with d. No end group written: not given here. *: point of attachment. 4‑guanidinomethylbenzoyl = N=C(N)NCc1ccc(C(=O)*)cc1; Phe(3-F) = N[C@@H](Cc1cccc(F)c1)C(=O)O; Phe(3-Me) = Cc1cccc(C[C@H](N)C(=O)O)c1; Phe(2-F) = N[C@@H](Cc1ccccc1F)C(=O)O; Phe(2-Me) = Cc1ccccc1C[C@H](N)C(=O)O; Tic = O=C(O)[C@@H]1Cc2ccccc2CN1; Cha = N[C@@H](CC1CCCCC1)C(=O)O; 4Amb = NCc1ccc(C(=O)O)cc1; Aib = CC(C)(N)C(=O)O

T1: human Y2 receptor (human, UniProt P49146 1-381)
T1 construct: whole, on cells; used as membrane fraction of hY2R/CHO cells; also called human NPY2R; hY2R
T1 sequence (looked up): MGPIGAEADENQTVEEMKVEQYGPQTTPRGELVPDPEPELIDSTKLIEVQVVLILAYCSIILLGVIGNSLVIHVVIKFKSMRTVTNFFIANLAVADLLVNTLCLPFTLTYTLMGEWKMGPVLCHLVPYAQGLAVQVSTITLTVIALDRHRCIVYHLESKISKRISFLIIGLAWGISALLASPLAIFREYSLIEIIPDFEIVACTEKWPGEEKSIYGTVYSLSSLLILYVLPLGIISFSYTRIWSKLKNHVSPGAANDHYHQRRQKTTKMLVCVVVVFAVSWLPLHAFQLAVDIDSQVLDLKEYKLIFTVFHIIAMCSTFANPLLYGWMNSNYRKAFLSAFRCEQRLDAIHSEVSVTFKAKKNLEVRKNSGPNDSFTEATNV


Key:
human Y2 receptor [1] = target: T1, human Y2 receptor; assay: RBA: [125I]-PYY displacement, hY2R/CHO membranes
Summary of the method: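 Bound radioligand was collected by filtration on PEI-treated GF/C filters, washed with Tris/MgCl₂/NaCl/CHAPS buffer pH 7.4, and counted by scintillation; IC₅₀ values were calculated.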

human Y2 receptor [2] = target: T1, human Y2 receptor; assay: cell-based or functional assay

Binder	IC50 Ratio (vs PYY(3-36)) (human Y2 receptor [1]) [ratio]	GBA EC50 Ratio (vs PYY(3-36)), [35S]GTPγS (human Y2 receptor [2]) [ratio]
Ac-S[dP]RH[Cha][Cha]NL[Aib]TRQR[Phe(2-F)]-NH2 (SMILES CC(=O)N[C@@H](CO)C(=O)N1CCC[C@@H]1C(=O)N[C@@H](CCCNC(=N)N)C(=O)N[C@@H](Cc1c[nH]cn1)C(=O)N[C@@H](CC1CCCCC1)C(=O)N[C@@H](CC1CCCCC1)C(=O)N[C@@H](CC(N)=O)C(=O)N[C@@H](CC(C)C)C(=O)NC(C)(C)C(=O)N[C@H](C(=O)N[C@@H](CCCNC(=N)N)C(=O)N[C@@H](CCC(N)=O)C(=O)N[C@@H](CCCNC(=N)N)C(=O)N[C@@H](Cc1ccccc1F)C(N)=O)[C@@H](C)O, also called compound No. 194) [Ac-[D-Pro24, Cha27,28, Aib31, Phe(2F)36]-PYY(23-36)]	1.4	1.3
Ac-S[dP]RH[Cha][Cha]NL[Aib]TRQR[Phe(3-Me)]-NH2 (SMILES CC(=O)N[C@@H](CO)C(=O)N1CCC[C@@H]1C(=O)N[C@@H](CCCNC(=N)N)C(=O)N[C@@H](Cc1c[nH]cn1)C(=O)N[C@@H](CC1CCCCC1)C(=O)N[C@@H](CC1CCCCC1)C(=O)N[C@@H](CC(N)=O)C(=O)N[C@@H](CC(C)C)C(=O)NC(C)(C)C(=O)N[C@H](C(=O)N[C@@H](CCCNC(=N)N)C(=O)N[C@@H](CCC(N)=O)C(=O)N[C@@H](CCCNC(=N)N)C(=O)N[C@@H](Cc1cccc(C)c1)C(N)=O)[C@@H](C)O, also called compound No. 197) [Ac-[D-Pro24, Cha27,28, Aib31, Phe(3Me)36]-PYY(23-36)]	1.3	1.9
Ac-S[dP]RH[Cha][Cha]NL[Aib]TRQR[Phe(2-Me)]-NH2 (SMILES CC(=O)N[C@@H](CO)C(=O)N1CCC[C@@H]1C(=O)N[C@@H](CCCNC(=N)N)C(=O)N[C@@H](Cc1c[nH]cn1)C(=O)N[C@@H](CC1CCCCC1)C(=O)N[C@@H](CC1CCCCC1)C(=O)N[C@@H](CC(N)=O)C(=O)N[C@@H](CC(C)C)C(=O)NC(C)(C)C(=O)N[C@H](C(=O)N[C@@H](CCCNC(=N)N)C(=O)N[C@@H](CCC(N)=O)C(=O)N[C@@H](CCCNC(=N)N)C(=O)N[C@@H](Cc1ccccc1C)C(N)=O)[C@@H](C)O, also called compound No. 196) [Ac-[D-Pro24, Cha27,28, Aib31, Phe(2Me)36]-PYY(23-36)]	1.6	1.6
Ac-S[dP]RH[Cha][Cha]NL[Aib]TRQR[Phe(3-F)]-NH2 (SMILES CC(=O)N[C@@H](CO)C(=O)N1CCC[C@@H]1C(=O)N[C@@H](CCCNC(=N)N)C(=O)N[C@@H](Cc1c[nH]cn1)C(=O)N[C@@H](CC1CCCCC1)C(=O)N[C@@H](CC1CCCCC1)C(=O)N[C@@H](CC(N)=O)C(=O)N[C@@H](CC(C)C)C(=O)NC(C)(C)C(=O)N[C@H](C(=O)N[C@@H](CCCNC(=N)N)C(=O)N[C@@H](CCC(N)=O)C(=O)N[C@@H](CCCNC(=N)N)C(=O)N[C@@H](Cc1cccc(F)c1)C(N)=O)[C@@H](C)O, also called compound No. 195) [Ac-[D-Pro24, Cha27,28, Aib31, Phe(3F)36]-PYY(23-36)]	2.1	1.5
{4‑guanidinomethylbenzoyl}-RAYINLITRQRY-NH2 (SMILES CC[C@H](C)[C@H](NC(=O)[C@H](Cc1ccc(O)cc1)NC(=O)[C@H](C)NC(=O)[C@H](CCCNC(=N)N)NC(=O)c1ccc(CNC(=N)N)cc1)C(=O)N[C@@H](CC(N)=O)C(=O)N[C@@H](CC(C)C)C(=O)N[C@H](C(=O)N[C@H](C(=O)N[C@@H](CCCNC(=N)N)C(=O)N[C@@H](CCC(N)=O)C(=O)N[C@@H](CCCNC(=N)N)C(=O)N[C@@H](Cc1ccc(O)cc1)C(N)=O)[C@@H](C)O)[C@@H](C)CC, also called compound No. 4) [4-Guanidinomethylbenzoyl-[Ala26, Ile28,31]-PYY(25-36)]	2.4	1.1
[4Amb]RAYANLITRQRY-NH2 (N-terminus assumed; SMILES CC[C@H](C)[C@H](NC(=O)[C@H](CC(C)C)NC(=O)[C@H](CC(N)=O)NC(=O)[C@H](C)NC(=O)[C@H](Cc1ccc(O)cc1)NC(=O)[C@H](C)NC(=O)[C@H](CCCNC(=N)N)NC(=O)c1ccc(CN)cc1)C(=O)N[C@H](C(=O)N[C@@H](CCCNC(=N)N)C(=O)N[C@@H](CCC(N)=O)C(=O)N[C@@H](CCCNC(=N)N)C(=O)N[C@@H](Cc1ccc(O)cc1)C(N)=O)[C@@H](C)O, also called compound No. 31) [4-Aminomethylbenzoyl-[Ala26,28, Ile31]-PYY(25-36)]	42	29
[4Amb]RAYINLATRQRY-NH2 (N-terminus assumed; SMILES CC[C@H](C)[C@H](NC(=O)[C@H](Cc1ccc(O)cc1)NC(=O)[C@H](C)NC(=O)[C@H](CCCNC(=N)N)NC(=O)c1ccc(CN)cc1)C(=O)N[C@@H](CC(N)=O)C(=O)N[C@@H](CC(C)C)C(=O)N[C@@H](C)C(=O)N[C@H](C(=O)N[C@@H](CCCNC(=N)N)C(=O)N[C@@H](CCC(N)=O)C(=O)N[C@@H](CCCNC(=N)N)C(=O)N[C@@H](Cc1ccc(O)cc1)C(N)=O)[C@@H](C)O, also called compound No. 33) [4-Aminomethylbenzoyl-[Ala26,31, Ile28]-PYY(25-36)]	23	17
[4Amb]RARINLITRQRY-NH2 (N-terminus assumed; SMILES CC[C@H](C)[C@H](NC(=O)[C@H](CCCNC(=N)N)NC(=O)[C@H](C)NC(=O)[C@H](CCCNC(=N)N)NC(=O)c1ccc(CN)cc1)C(=O)N[C@@H](CC(N)=O)C(=O)N[C@@H](CC(C)C)C(=O)N[C@H](C(=O)N[C@H](C(=O)N[C@@H](CCCNC(=N)N)C(=O)N[C@@H](CCC(N)=O)C(=O)N[C@@H](CCCNC(=N)N)C(=O)N[C@@H](Cc1ccc(O)cc1)C(N)=O)[C@@H](C)O)[C@@H](C)CC, also called compound No. 29) [4-Aminomethylbenzoyl-[Ala26, Arg27, Ile28,31]-PYY(25-36)]	6.8	4.3
[4Amb]RAYINAITRQRY-NH2 (N-terminus assumed; SMILES CC[C@H](C)[C@H](NC(=O)[C@H](C)NC(=O)[C@H](CC(N)=O)NC(=O)[C@@H](NC(=O)[C@H](Cc1ccc(O)cc1)NC(=O)[C@H](C)NC(=O)[C@H](CCCNC(=N)N)NC(=O)c1ccc(CN)cc1)[C@@H](C)CC)C(=O)N[C@H](C(=O)N[C@@H](CCCNC(=N)N)C(=O)N[C@@H](CCC(N)=O)C(=O)N[C@@H](CCCNC(=N)N)C(=O)N[C@@H](Cc1ccc(O)cc1)C(N)=O)[C@@H](C)O, also called compound No. 32) [4-Aminomethylbenzoyl-[Ala26,30, Ile28,31]-PYY(25-36)]	9.1	7.4
[4Amb]RAYINLITRQR[Tic]-NH2 (N-terminus assumed; SMILES CC[C@H](C)[C@H](NC(=O)[C@H](Cc1ccc(O)cc1)NC(=O)[C@H](C)NC(=O)[C@H](CCCNC(=N)N)NC(=O)c1ccc(CN)cc1)C(=O)N[C@@H](CC(N)=O)C(=O)N[C@@H](CC(C)C)C(=O)N[C@H](C(=O)N[C@H](C(=O)N[C@@H](CCCNC(=N)N)C(=O)N[C@@H](CCC(N)=O)C(=O)N[C@@H](CCCNC(=N)N)C(=O)N1Cc2ccccc2C[C@H]1C(N)=O)[C@@H](C)O)[C@@H](C)CC, also called compound No. 17) [4-Aminomethylbenzoyl-[Ala26, Ile28,31, Tic36]-PYY(25-36)]	180	66
